From IntAct's records for PubMed 21074049

B1: ERAD-associated E3 ubiquitin-protein ligase HRD1 (Saccharomyces cerevisiae), Q08109 (parent)
chain: MVPENRRKQLAIFVVVTYLLTFYCVYSATKTSVSFLQVTLKLNEGFNLMVLSIFILLNSTLLWQLLTKLLFGELRLIEHEHIFERLPFTIINTLFMSSLFHERYFFTVAFFGLLLLYLKVFHWILKDRLEALLQSINDSTTMKTLIFSRFSFNLVLLAVVDYQIITRCISSIYTNQKSDIESTSLYLIQVMEFTMLLIDLLNLFLQTCLNFWEFYRSQQSLSNENNHIVHGDPTDENTVESDQSQPVLNDDDDDDDDDRQFTGLEGKFMYEKAIDVFTRFLKTALHLSMLIPFRMPMMLLKDVVWDILALYQSGTSLWKIWRNNKQLDDTLVTVTVEQLQNSANDDNICIICMDELIHSPNQQTWKNKNKKPKRLPCGHILHLSCLKNWMERSQTCPICRLPVFDEKGNVVQTTFTSNSDITTQTTVTDSTGIATDQQGFANEVDLLPTRTTSPDIRIVPTQNIDTLAMRTRSTSTPSPTWYTFPLHKTGDNSVGSSRSAYEFLITNSDEKENGIPVKLTIENHEVNSLHGDGGEQIAKKIVIPDKFIQHI
partner: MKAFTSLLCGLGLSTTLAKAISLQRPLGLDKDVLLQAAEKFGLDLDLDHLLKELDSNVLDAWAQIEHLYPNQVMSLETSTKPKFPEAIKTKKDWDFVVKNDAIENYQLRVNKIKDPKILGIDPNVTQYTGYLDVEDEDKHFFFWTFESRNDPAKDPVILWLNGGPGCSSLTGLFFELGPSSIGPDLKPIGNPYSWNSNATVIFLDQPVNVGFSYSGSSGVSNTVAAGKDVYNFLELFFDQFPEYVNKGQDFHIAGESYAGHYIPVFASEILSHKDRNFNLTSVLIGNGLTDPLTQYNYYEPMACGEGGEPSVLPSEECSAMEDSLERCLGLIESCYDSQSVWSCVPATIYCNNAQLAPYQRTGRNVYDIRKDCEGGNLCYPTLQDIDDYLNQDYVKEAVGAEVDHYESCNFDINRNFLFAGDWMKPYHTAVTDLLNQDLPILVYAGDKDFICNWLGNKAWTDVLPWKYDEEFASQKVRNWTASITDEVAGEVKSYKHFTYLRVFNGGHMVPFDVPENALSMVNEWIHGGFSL

Variants of: B1
Details: with cbpy_yeast PRC1, P00729

Variant	effect of a mutation on the interaction
MVPENRRKQLAIFVVVTYLLTFYCVYSATKTSVSFLQVTLKLNEGFNLMVLSIFILLNSTLLWQLLTKLLFGELRLIEHEHIFERLPFTIINTLFMSSLFHERYFFTVAFFGLLLLYLKVFHWILKDRLEALLQSINDSTTMKTLIFSRFSFNLVLLAVVDYQIITRCISSIYTNQKSDIESTSLYLIQVMEFTMLLIDLLNLFLQTCLNFWEFYRSQQSLSNENNHIVHGDPTDENTVESDQSQPVLNDDDDDDDDDRQFTGLEGKFMYEKAIDVFTRFLKTALHLSMLIPFRMPMMLLKDVVWDILALYQSGTSLWKIWRNNKQLDDTLVTVTVEQLQNSANDDNICIICMDELIHSPNQQTWKNKNKKPKRLPCGHILHLSCLKNWMERSQTCPISRLPVFDEKGNVVQTTFTSNSDITTQTTVTDSTGIATDQQGFANEVDLLPTRTTSPDIRIVPTQNIDTLAMRTRSTSTPSPTWYTFPLHKTGDNSVGSSRSAYEFLITNSDEKENGIPVKLTIENHEVNSLHGDGGEQIAKKIVIPDKFIQHI [C399S]	decreasing interaction
